From patent US20200317768A1 (published 2020)

T1: cynomolgus monkey FcγRIIa1 extracellular domain, C-terminal His-tag (cynomolgus monkey)
T1 construct: also called cyno FcγRIIa1; cynoFcgRIIa1; not shown: His-tag added to C-terminus
T1 chain: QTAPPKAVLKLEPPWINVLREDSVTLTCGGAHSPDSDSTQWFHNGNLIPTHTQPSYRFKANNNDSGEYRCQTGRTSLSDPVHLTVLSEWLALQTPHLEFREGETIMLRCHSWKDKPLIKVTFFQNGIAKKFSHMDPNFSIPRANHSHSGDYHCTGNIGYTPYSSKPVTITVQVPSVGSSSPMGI

T2: cynomolgus monkey FcγRIIa2 extracellular domain, C-terminal His-tag (cynomolgus monkey)
T2 construct: also called cyno FcγRIIa2; cynoFcgRIIa2; not shown: His-tag added to C-terminus
T2 chain: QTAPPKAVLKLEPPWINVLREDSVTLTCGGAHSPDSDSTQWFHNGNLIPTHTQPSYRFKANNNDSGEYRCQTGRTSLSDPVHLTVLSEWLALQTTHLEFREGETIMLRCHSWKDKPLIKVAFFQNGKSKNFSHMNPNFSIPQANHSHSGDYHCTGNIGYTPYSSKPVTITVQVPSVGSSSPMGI

T3: cynomolgus monkey FcγRIIb extracellular domain, C-terminal His-tag (cynomolgus monkey)
T3 construct: also called cyno FcγRIIb; cynoFcγRIIb; not shown: His-tag added to C-terminus
T3 chain: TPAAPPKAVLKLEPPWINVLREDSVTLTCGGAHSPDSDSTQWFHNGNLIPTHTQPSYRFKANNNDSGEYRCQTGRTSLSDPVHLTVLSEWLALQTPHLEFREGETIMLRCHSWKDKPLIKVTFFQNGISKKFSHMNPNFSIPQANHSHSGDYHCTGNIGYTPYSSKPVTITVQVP

T4: human FcγRIIaH extracellular domain, C-terminal His-tag (human, UniProt P12318 34-217)
T4 construct: also called human FcγRIIa (type H); FcgRIIaH; not shown: His-tag added to C-terminus
T4 sequence: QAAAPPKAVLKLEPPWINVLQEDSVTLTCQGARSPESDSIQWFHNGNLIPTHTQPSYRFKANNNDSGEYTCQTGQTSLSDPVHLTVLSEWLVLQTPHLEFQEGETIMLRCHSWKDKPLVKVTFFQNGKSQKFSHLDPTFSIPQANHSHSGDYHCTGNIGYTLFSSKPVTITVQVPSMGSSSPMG

T5: human FcγRIIb extracellular domain, C-terminal His-tag (human, UniProt P31994 43-217)
T5 construct: also called FcgRIIb (human); not shown: His-tag added to C-terminus
T5 sequence: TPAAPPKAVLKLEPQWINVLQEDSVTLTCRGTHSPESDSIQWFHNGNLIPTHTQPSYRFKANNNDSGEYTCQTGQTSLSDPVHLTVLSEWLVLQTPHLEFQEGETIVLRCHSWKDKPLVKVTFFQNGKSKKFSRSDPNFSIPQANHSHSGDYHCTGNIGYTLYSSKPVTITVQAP


Key:
Assay in all cases: SPR (Biacore), antibody captured, FcgR analyte, 25 C
[1] = target: T1, cynomolgus monkey FcγRIIa1 …
[2] = target: T2, cynomolgus monkey FcγRIIa2 …
[3] = target: T3, cynomolgus monkey FcγRIIb extracellular …
[4] = target: T6, cynomolgus monkey FcγRIIIaS extracellular domain, C-terminal His-tag (cynomolgus monkey, UniProt A3RFZ7 21-206 (rhesus entry))
T6 construct: also called cyno FcγRIIIaS; cynoFcγRIIIaS; not shown: His-tag added to C-terminus

[5] = target: T4, human FcγRIIaH extracellular domain, …
[6] = target: T5, human FcγRIIb extracellular domain, …
[7] = target: T7, human FcγRIIIaV extracellular domain, C-terminal His-tag (human, UniProt P08637 17-208)
T7 construct: also called FcgRIIIaV; not shown: His-tag added to C-terminus
T7 sequence (P08637 17-208 F176V): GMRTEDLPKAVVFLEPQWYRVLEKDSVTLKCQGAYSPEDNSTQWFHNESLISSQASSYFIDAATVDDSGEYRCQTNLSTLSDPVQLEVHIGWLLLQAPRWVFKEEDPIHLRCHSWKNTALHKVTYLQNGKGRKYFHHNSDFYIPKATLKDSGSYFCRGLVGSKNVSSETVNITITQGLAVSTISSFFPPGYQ

T6 sequence (A3RFZ7 21-206): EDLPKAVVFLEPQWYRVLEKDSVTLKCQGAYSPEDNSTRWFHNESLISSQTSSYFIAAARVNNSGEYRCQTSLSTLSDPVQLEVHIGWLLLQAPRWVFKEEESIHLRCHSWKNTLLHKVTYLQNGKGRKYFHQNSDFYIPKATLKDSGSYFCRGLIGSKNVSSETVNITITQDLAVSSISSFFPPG

Row | Binder | Kd [1] [nM] | Kd [2] [nM] | Kd [3] [nM] | Kd [4] [nM] | Kd [5] [nM] | Kd [6] [nM] | Kd [7] [µM]
1 | M103205H795-MY213/M103202L889-SK1 (antibody, human IgG1, kappa) heavy: QVTLKESGPVLVKPTETLTLTCTVSGIDLSHDDISWVRQAPGKGLEWVGIISYAGSTYYASWAKGRLTISKDTSKNQVVLTMTNMDPVDTATYYCARGVPAYSHGGDLWGQGTLVTVSSASTKGPSVFPLAPSSKSTSGGTAALGCLVKDYFPEPVTVSWNSGALTSGVHTFPAVLQSSGLYSLSSVVTVPSSSLGTQTYICNVNHKPSNTKVDKKVEPKSCDKTHTCPPCPAPELLNGPSVFLFPPKPKDTLMISRTPEVTCVVVDVSDEDPEVKFNWYVDGVEVHNAKTKPREEQYNSTYRVVSVLTVLHQDWLNGKEYKCKVSNKALPKPIEKTISKAKGQPREPQVYTLPPSREEMTKNQVSLTCLVKGFYPSDIAVEWESNGQPENNYKTTPKVLDSDGSFFLYSKLTVDKSRWQQGNVFSCSVMHEALHNHYTQKSLSLSP light: DIVMTQSPATLSLSPGERATLSCTSSQSVYHANWLSWFQQKPGQPPKLLIYWASTLAYGVPSRFSGSGSGTDFTLTISSLQPEDAATYYCAGGYGGGRYAFGQGTKVEIKRTVAAPSVFIFPPSDEQLKSGTASVVCLLNNFYPREAKVQWKVDNALQSGNSQESVTEQDSKDSTYSLSSTLTLSKADYEKHKVYACEVTHQGLSSPVTKSFNRGEC | 530 | 520 | 160 | 1900 | 350 | 360 | 11
2 | M103205H795-MY228/M103202L889-SK1 (antibody, human IgG1, kappa) heavy: QVTLKESGPVLVKPTETLTLTCTVSGIDLSHDDISWVRQAPGKGLEWVGIISYAGSTYYASWAKGRLTISKDTSKNQVVLTMTNMDPVDTATYYCARGVPAYSHGGDLWGQGTLVTVSSASTKGPSVFPLAPSSKSTSGGTAALGCLVKDYFPEPVTVSWNSGALTSGVHTFPAVLQSSGLYSLSSVVTVPSSSLGTQTYICNVNHKPSNTKVDKKVEPKSCDKTHTCPPCPAPELLGYPSVFLFPPKPKDTLMISRTPEVTCVVVDVSDEDPEVKFNWYVDGVEVHNAKTKPREELYNSTYRVVSVLTVLHQDWLNGKEYKCKVSNKALPKPIEKTISKAKGQPREPQVYTLPPSREEMTKNQVSLTCLVKGFYPSDIAVEWESNGQPENNYKTTPPVLDSDGSFFLYSKLTVDKSRWQQGNVFSCSVMHEALHNHYTQKSLSLSP light: DIVMTQSPATLSLSPGERATLSCTSSQSVYHANWLSWFQQKPGQPPKLLIYWASTLAYGVPSRFSGSGSGTDFTLTISSLQPEDAATYYCAGGYGGGRYAFGQGTKVEIKRTVAAPSVFIFPPSDEQLKSGTASVVCLLNNFYPREAKVQWKVDNALQSGNSQESVTEQDSKDSTYSLSSTLTLSKADYEKHKVYACEVTHQGLSSPVTKSFNRGEC | 3000 | 3300 | 1100 | 9700 | 2200 | 300 | 140
3 | M103205H795-MY227/M103202L889-SK1 (antibody, human IgG1, kappa) heavy: QVTLKESGPVLVKPTETLTLTCTVSGIDLSHDDISWVRQAPGKGLEWVGIISYAGSTYYASWAKGRLTISKDTSKNQVVLTMTNMDPVDTATYYCARGVPAYSHGGDLWGQGTLVTVSSASTKGPSVFPLAPSSKSTSGGTAALGCLVKDYFPEPVTVSWNSGALTSGVHTFPAVLQSSGLYSLSSVVTVPSSSLGTQTYICNVNHKPSNTKVDKKVEPKSCDKTHTCPPCPAPELLGYPSVFLFPPKPKDTLMISRTPEVTCVVVDVSDEDPEVKFNWYVDGVEVHNAKTKPREEQYNSTYRVVSVLTVLHQDWLNGKEYKCKVSNKALPKPIEKTISKAKGQPREPQVYTLPPSREEMTKNQVSLTCLVKGFYPSDIAVEWESNGQPENNYKTTPKVLDSDGSFFLYSKLTVDKSRWQQGNVFSCSVMHEALHNHYTQKSLSLSP light: DIVMTQSPATLSLSPGERATLSCTSSQSVYHANWLSWFQQKPGQPPKLLIYWASTLAYGVPSRFSGSGSGTDFTLTISSLQPEDAATYYCAGGYGGGRYAFGQGTKVEIKRTVAAPSVFIFPPSDEQLKSGTASVVCLLNNFYPREAKVQWKVDNALQSGNSQESVTEQDSKDSTYSLSSTLTLSKADYEKHKVYACEVTHQGLSSPVTKSFNRGEC | 1900 | 2500 | 510 | 3900 | 1300 | 130 | 18
4 | M103205H795-MY219/M103202L889-SK1 (antibody, human IgG1, kappa) heavy: QVTLKESGPVLVKPTETLTLTCTVSGIDLSHDDISWVRQAPGKGLEWVGIISYAGSTYYASWAKGRLTISKDTSKNQVVLTMTNMDPVDTATYYCARGVPAYSHGGDLWGQGTLVTVSSASTKGPSVFPLAPSSKSTSGGTAALGCLVKDYFPEPVTVSWNSGALTSGVHTFPAVLQSSGLYSLSSVVTVPSSSLGTQTYICNVNHKPSNTKVDKKVEPKSCDKTHTCPPCPAPELLGYPSVFLFPPKPKDTLMISRTPEVTCVVVDVSDEDPEVKFNWYVDGVEVHNAKTKPREEQYNSTYRVVSVLTVLHQDWLNGKEYKCKVSNKALPKPIEKTISKAKGQPREPQVYTLPPSREEMTKNQVSLTCLVKGFYPSDIAVEWESNGQPENNYKTTPPVLDSDGSFFLYSKLTVDKSRWQQGNVFSCSVMHEALHNHYTQKSLSLSP light: DIVMTQSPATLSLSPGERATLSCTSSQSVYHANWLSWFQQKPGQPPKLLIYWASTLAYGVPSRFSGSGSGTDFTLTISSLQPEDAATYYCAGGYGGGRYAFGQGTKVEIKRTVAAPSVFIFPPSDEQLKSGTASVVCLLNNFYPREAKVQWKVDNALQSGNSQESVTEQDSKDSTYSLSSTLTLSKADYEKHKVYACEVTHQGLSSPVTKSFNRGEC | 3500 | 4000 | 1300 | 6200 | 2300 | 340 | 91

Results, then the binder that gave them:

Row | Kd [1] [nM] | Kd [2] [nM] | Kd [3] [nM] | Kd [4] [nM] | Kd [5] [nM] | Kd [6] [nM] | Kd [7] [µM] | Binder
5 | 2300 | 2600 | 350 | 220 | 230 | 2100 | 1.1 | M103205H795-MY269/M103202L889-SK1 (antibody, human IgG1, kappa) heavy: QVTLKESGPVLVKPTETLTLTCTVSGIDLSHDDISWVRQAPGKGLEWVGIISYAGSTYYASWAKGRLTISKDTSKNQVVLTMTNMDPVDTATYYCARGVPAYSHGGDLWGQGTLVTVSSASTKGPSVFPLAPSSKSTSGGTAALGCLVKDYFPEPVTVSWNSGALTSGVHTFPAVLQSSGLYSLSSVVTVPSSSLGTQTYICNVNHKPSNTKVDKKVEPKSCDKTHTCPPCPAPELLMGPSVFLFPPKPKDTLMISRTPEVTCVVVDVSDEDPEVKFNWYVDGVEVHNAKTKPREEQYNSTYRVVSVLTVLHQDWLNGKEYKCKVSNKALPKPIEKTISKAKGQPREPQVYTLPPSREEMTKNQVSLTCLVKGFYPSDIAVEWESNGQPENNYKTTPKVLDSDGSFFLYSKLTVDKSRWQQGNVFSCSVMHEALHNHYTQKSLSLSP light: DIVMTQSPATLSLSPGERATLSCTSSQSVYHANWLSWFQQKPGQPPKLLIYWASTLAYGVPSRFSGSGSGTDFTLTISSLQPEDAATYYCAGGYGGGRYAFGQGTKVEIKRTVAAPSVFIFPPSDEQLKSGTASVVCLLNNFYPREAKVQWKVDNALQSGNSQESVTEQDSKDSTYSLSSTLTLSKADYEKHKVYACEVTHQGLSSPVTKSFNRGEC
6 | 4500 | 4200 | 1100 | 990 | 820 | 1900 | 9.2 | M103205H795-MY242/M103202L889-SK1 (antibody, human IgG1, kappa) heavy: QVTLKESGPVLVKPTETLTLTCTVSGIDLSHDDISWVRQAPGKGLEWVGIISYAGSTYYASWAKGRLTISKDTSKNQVVLTMTNMDPVDTATYYCARGVPAYSHGGDLWGQGTLVTVSSASTKGPSVFPLAPSSKSTSGGTAALGCLVKDYFPEPVTVSWNSGALTSGVHTFPAVLQSSGLYSLSSVVTVPSSSLGTQTYICNVNHKPSNTKVDKKVEPKSCDKTHTCPPCPAPELLGGISVFLFPPKPKDTLMISRTPEVTCVVVDVSDEDPEVKFNWYVDGVEVHNAKTKPREEQYNSTYRVVSVLTVLHQDWLNGKEYKCKVSNKALPKPIEKTISKAKGQPREPQVYTLPPSREEMTKNQVSLTCLVKGFYPSDIAVEWESNGQPENNYKTTPKVLDSDGSFFLYSKLTVDKSRWQQGNVFSCSVMHEALHNHYTQKSLSLSP light: DIVMTQSPATLSLSPGERATLSCTSSQSVYHANWLSWFQQKPGQPPKLLIYWASTLAYGVPSRFSGSGSGTDFTLTISSLQPEDAATYYCAGGYGGGRYAFGQGTKVEIKRTVAAPSVFIFPPSDEQLKSGTASVVCLLNNFYPREAKVQWKVDNALQSGNSQESVTEQDSKDSTYSLSSTLTLSKADYEKHKVYACEVTHQGLSSPVTKSFNRGEC
